# Test results: the supplement of paper PMC5998384
# Columns and labels:
# [1] = system: HeLa Kyoto; assay: solubility in G1/S (NP-40 vs SDS abundance) (log2 ratio); higher = more soluble; settings: cell cycle stage: G1/S
# [2] = system: HeLa Kyoto; assay: melting temperature (median over replicates), in situ; higher = more thermally stable
# [3] = system: HeLa Kyoto; assay: solubility change mitosis vs G1/S (difference of NP-40 vs SDS log2 ratios) (log2 ratio difference); higher = more soluble in mitosis
# [4] = system: HeLa Kyoto; assay: thermal stability score vs G1/S (z-score of summed log2 fold changes over temperatures); higher = more thermally stable than in G1/S
# [5] = cell cycle stage: early G1 (4.5 h after nocodazole release)
# 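Wherever melting temperature (median over replicates), in situ is given: HeLa Kyoto cells synchronized by double thymidine or nocodazole block, proteins quantified by TMT10plex mass spectrometry, three independent biological replicates.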
# 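Wherever solubility change mitosis vs G1/S (difference of NP-40 vs SDS log2 ratios) is given: synchronized HeLa Kyoto cells (double thymidine block for G1/S, nocodazole release for mitosis), protein amounts in NP-40 versus SDS lysates quantified by mass spectrometry, three biological replicates.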
# 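Wherever solubility in G1/S (NP-40 vs SDS abundance) is given: HeLa Kyoto cells arrested at G1/S by double thymidine block, proteins quantified by TMT10plex mass spectrometry in mild NP-40 versus SDS extracts, three biological replicates.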
# 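Wherever thermal stability score vs G1/S (z-score of summed log2 fold changes over temperatures) is given: synchronized HeLa Kyoto cells, proteins quantified by TMT10plex mass spectrometry, three biological replicates, mitosis taken 0.5 h after nocodazole release, G1/S directly after double thymidine block.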
Sequence,solubility in G1/S (log2) [1],melting temperature ([2]; cell cycle stage: G1/S) [°C],melting temperature ([2]; cell cycle stage: mitosis) [°C],solubility change mitosis (log2) [3],"thermal stability score [4, 5]",thermal stability score ([4]; cell cycle stage: mitosis)
MAPLLGRKPFPLVKPLPGEEPLFTIPHTQEAFRTREEYEARLERYSERIWTCKSTGSSQLTHKEAWEEEQEVAELLKEEFPAWYEKLVLEMVHHNTASLEKLVDTAWLEIMTKYAVGEECDFEVGKEKMLKVKIVKIHPLEKVDEEATEKKSDGACDSPSSDKENSSQIAQDHQKKETVVKEDEGRRESINDRARRSPRKLPTSLKKGERKWAPPKFLPHKYDVKLQNEDKIISNVPADSLIRTERPPNKEIVRYFIRHNALRAGTGENAPWVVEDELVKKYSLPSKFSDFLLDPYKYMTLNPSTKRKNTGSPDRKPSKKSKTDNSSLSSPLNPKLWCHVHLKKSLSGSPLKVKNSKNSKSPEEHLEEMMKMMSPNKLHTNFHIPKKGPPAKKPGKHSDKPLKAKGRSKGILNGQKSTGNSKSPKKGLKTPKTKMKQMTLLDMAKGTQKMTRAPRNSGGTPRTSSKPHKHLPPAALHLIAYYKENKDREDKRSALSCVISKTARLLSSEDRARLPEELRSLVQKRYELLEHKKRWASMSEEQRKEYLKKKREELKKKLKEKAKERREKEMLERLEKQKRYEDQELTGKNLPAFRLVDTPEGLPNTLFGDVAMVVEFLSCYSGLLLPDAQYPITAVSLMEALSADKGGFLYLNRVLVILLQTLLQDEIAEDYGELGMKLSEIPLTLHSVSELVRLCLRRSDVQEESEGSDTDDNKDSAAFEDNEVQDEFLEKLETSEFFELTSEEKLQILTALCHRILMTYSVQDHMETRQQMSAELWKERLAVLKEENDKKRAEKQKRKEMEAKNKENGKVENGLGKTDRKKEIVKFEPQVDTEAEDMISAVKSRRLLAIQAKKEREIQEREMKVKLERQAEEERIRKHKAAAEKAFQEGIAKAKLVMRRTPIGTDRNHNRYWLFSDEVPGLFIEKGWVHDSIDYRFNHHCKDHTVSGDEDYCPRSKKANLGKNASMNTQHGTATEVAVETTTPKQGQNLWFLCDSQKELDELLNCLHPQGIRESQLKERLEKRYQDIIHSIHLARKPNLGLKSCDGNQELLNFLRSDLIEVATRLQKGGLGYVEETSEFEARVISLEKLKDFGECVIALQASVIKKFLQGFMAPKQKRRKLQSEDSAKTEEVDEEKKMVEEAKVASALEKWKTAIREAQTFSRMHVLLGMLDACIKWDMSAENARCKVCRKKGEDDKLILCDECNKAFHLFCLRPALYEVPDGEWQCPACQPATARRNSRGRNYTEESASEDSEDDESDEEEEEEEEEEEEEDYEVAGLRLRPRKTIRGKHSVIPPAARSGRRPGKKPHSTRRSQPKAPPVDDAEVDELVLQTKRSSRRQSLELQKCEEILHKIVKYRFSWPFREPVTRDEAEDYYDVITHPMDFQTVQNKCSCGSYRSVQEFLTDMKQVFTNAEVYNCRGSHVLSCMVKTEQCLVALLHKHLPGHPYVRRKRKKFPDRLAEDEGDSEPEAVGQSRGRRQKK [BAZ1B],-2.14,50.7,51,1.24,1.09,-0.274
MLAFAARTVVKPLGFLKPFSLMKASSRFKAHQDALPRLPVPPLQQSLDHYLKALQPIVSEEEWAHTKQLVDEFQASGGVGERLQKGLERRARKTENWLSEWWLKTAYLQYRQPVVIYSSPGVMLPKQDFVDLQGQLRFAAKLIEGVLDFKVMIDNETLPVEYLGGKPLCMNQYYQILSSCRVPGPKQDTVSNFSKTKKPPTHITVVHNYQFFELDVYHSDGTPLTADQIFVQLEKIWNSSLQTNKEPVGILTSNHRNSWAKAYNTLIKDKVNRDSVRSIQKSIFTVCLDATMPRVSEDVYRSHVAGQMLHGGGSRLNSGNRWFDKTLQFIVAEDGSCGLVYEHAAAEGPPIVTLLDYVIEYTKKPELVRSPLVPLPMPKKLRFNITPEIKSDIEKAKQNLSIMIQDLDITVMVFHHFGKDFPKSEKLSPDAFIQMALQLAYYRIYGQACATYESASLRMFHLGRTDTIRSASMDSLTFVKAMDDSSVTEHQKVELLRKAVQAHRGYTDRAIRGEAFDRHLLGLKLQAIEDLVSMPDIFMDTSYAIAMHFHLSTSQVPAKTDCVMFFGPVVPDGYGVCYNPMEAHINFSLSAYNSCAETNAARLAHYLEKALLDMRALLQSHPRAKL [CRAT],-0.0625,49.4,49.4,-0.142,1.13,1.4
MTAEEMKATESGAQSAPLPMEGVDISPKQDEGVLKVIKREGTGTEMPMIGDRVFVHYTGWLLDGTKFDSSLDRKDKFSFDLGKGEVIKAWDIAIATMKVGEVCHITCKPEYAYGSAGSPPKIPPNATLVFEVELFEFKGEDLTEEEDGGIIRRIQTRGEGYAKPNEGAIVEVALEGYYKDKLFDQRELRFEIGEGENLDLPYGLERAIQRMEKGEHSIVYLKPSYAFGSVGKEKFQIPPNAELKYELHLKSFEKAKESWEMNSEEKLEQSTIVKERGTVYFKEGKYKQALLQYKKIVSWLEYESSFSNEEAQKAQALRLASHLNLAMCHLKLQAFSAAIESCNKALELDSNNEKGLFRRGEAHLAVNDFELARADFQKVLQLYPNNKAAKTQLAVCQQRIRRQLAREKKLYANMFERLAEEENKAKAEASSGDHPTDTEMKEEQKSNTAGSQSQVETEA [FKBP4],0.197,50,50.1,-0.129,1.07,1.03
MLLKTVLLLGHVAQVLMLDNGLLQTPPMGWLAWERFRCNINCDEDPKNCISEQLFMEMADRMAQDGWRDMGYTYLNIDDCWIGGRDASGRLMPDPKRFPHGIPFLADYVHSLGLKLGIYADMGNFTCMGYPGTTLDKVVQDAQTFAEWKVDMLKLDGCFSTPEERAQGYPKMAAALNATGRPIAFSCSWPAYEGGLPPRVNYSLLADICNLWRNYDDIQDSWWSVLSILNWFVEHQDILQPVAGPGHWNDPDMLLIGNFGLSLEQSRAQMALWTVLAAPLLMSTDLRTISAQNMDILQNPLMIKINQDPLGIQGRRIHKEKSLIEVYMRPLSNKASALVFFSCRTDMPYRYHSSLGQLNFTGSVIYEAQDVYSGDIISGLRDETNFTVIINPSGVVMWYLYPIKNLEMSQQ [NAGA],0.254,54.8,54.5,-0.171,-1.47,-2.02
MAEGGAADLDTQRSDIATLLKTSLRKGDTWYLVDSRWFKQWKKYVGFDSWDKYQMGDQNVYPGPIDNSGLLKDGDAQSLKEHLIDELDYILLPTEGWNKLVSWYTLMEGQEPIARKVVEQGMFVKHCKVEVYLTELKLCENGNMNNVVTRRFSKADTIDTIEKEIRKIFSIPDEKETRLWNKYMSNTFEPLNKPDSTIQDAGLYQGQVLVIEQKNEDGTWPRGPSTPKSPGASNFSTLPKISPSSLSNNYNNMNNRNVKNSNYCLPSYTAYKNYDYSEPGRNNEQPGLCGLSNLGNTCFMNSAIQCLSNTPPLTEYFLNDKYQEELNFDNPLGMRGEIAKSYAELIKQMWSGKFSYVTPRAFKTQVGRFAPQFSGYQQQDCQELLAFLLDGLHEDLNRIRKKPYIQLKDADGRPDKVVAEEAWENHLKRNDSIIVDIFHGLFKSTLVCPECAKISVTFDPFCYLTLPLPMKKERTLEVYLVRMDPLTKPMQYKVVVPKIGNILDLCTALSALSGIPADKMIVTDIYNHRFHRIFAMDENLSSIMERDDIYVFEININRTEDTEHVIIPVCLREKFRHSSYTHHTGSSLFGQPFLMAVPRNNTEDKLYNLLLLRMCRYVKISTETEETEGSLHCCKDQNINGNGPNGIHEEGSPSEMETDEPDDESSQDQELPSENENSQSEDSVGGDNDSENGLCTEDTCKGQLTGHKKRLFTFQFNNLGNTDINYIKDDTRHIRFDDRQLRLDERSFLALDWDPDLKKRYFDENAAEDFEKHESVEYKPPKKPFVKLKDCIELFTTKEKLGAEDPWYCPNCKEHQQATKKLDLWSLPPVLVVHLKRFSYSRYMRDKLDTLVDFPINDLDMSEFLINPNAGPCRYNLIAVSNHYGGMGGGHYTAFAKNKDDGKWYYFDDSSVSTASEDQIVSKAAYVLFYQRQDTFSGTGFFPLDRETKGASAATGIPLESDEDSNDNDNDIENENCMHTN [USP15],0.00479,49.8,49.9,-0.118,-0.274,0.549
MEWWASSPLRLWLLLFLLPSAQGRQKESGSKWKVFIDQINRSLENYEPCSSQNCSCYHGVIEEDLTPFRGGISRKMMAEVVRRKLGTHYQITKNRLYRENDCMFPSRCSGVEHFILEVIGRLPDMEMVINVRDYPQVPKWMEPAIPVFSFSKTSEYHDIMYPAWTFWEGGPAVWPIYPTGLGRWDLFREDLVRSAAQWPWKKKNSTAYFRGSRTSPERDPLILLSRKNPKLVDAEYTKNQAWKSMKDTLGKPAAKDVHLVDHCKYKYLFNFRGVAASFRFKHLFLCGSLVFHVGDEWLEFFYPQLKPWVHYIPVKTDLSNVQELLQFVKANDDVAQEIAERGSQFIRNHLQMDDITCYWENLLSEYSKFLSYNVTRRKGYDQIIPKMLKTEL [POGLUT1],0.28,52.9,54,-0.0965,2.61,3.25
MPGVKLTTQAYCKMVLHGAKYPHCAVNGLLVAEKQKPRKEHLPLGGPGAHHTLFVDCIPLFHGTLALAPMLEVALTLIDSWCKDHSYVIAGYYQANERVKDASPNQVAEKVASRIAEGFSDTALIMVDNTKFTMDCVAPTIHVYEHHENRWRCRDPHHDYCEDWPEAQRISASLLDSRSYETLVDFDNHLDDIRNDWTNPEINKAVLHLC [EMC8],0.269,53.1,53.3,-0.272,-1.83,-2.67
MPRAPAPLYACLLGLCALLPRLAGLNICTSGSATSCEECLLIHPKCAWCSKEDFGSPRSITSRCDLRANLVKNGCGGEIESPASSFHVLRSLPLSSKGSGSAGWDVIQMTPQEIAVNLRPGDKTTFQLQVRQVEDYPVDLYYLMDLSLSMKDDLDNIRSLGTKLAEEMRKLTSNFRLGFGSFVDKDISPFSYTAPRYQTNPCIGYKLFPNCVPSFGFRHLLPLTDRVDSFNEEVRKQRVSRNRDAPEGGFDAVLQAAVCKEKIGWRKDALHLLVFTTDDVPHIALDGKLGGLVQPHDGQCHLNEANEYTASNQMDYPSLALLGEKLAENNINLIFAVTKNHYMLYKNFTALIPGTTVEILDGDSKNIIQLIINAYNSIRSKVELSVWDQPEDLNLFFTATCQDGVSYPGQRKCEGLKIGDTASFEVSLEARSCPSRHTEHVFALRPVGFRDSLEVGVTYNCTCGCSVGLEPNSARCNGSGTYVCGLCECSPGYLGTRCECQDGENQSVYQNLCREAEGKPLCSGRGDCSCNQCSCFESEFGKIYGPFCECDNFSCARNKGVLCSGHGECHCGECKCHAGYIGDNCNCSTDISTCRGRDGQICSERGHCLCGQCQCTEPGAFGEMCEKCPTCPDACSTKRDCVECLLLHSGKPDNQTCHSLCRDEVITWVDTIVKDDQEAVLCFYKTAKDCVMMFTYVELPSGKSNLTVLREPECGNTPNAMTILLAVVGSILLVGLALLAIWKLLVTIHDRREFAKFQSERSRARYEMASNPLYRKPISTHTVDFTFNKFNKSYNGTVD [ITGB5],-0.15,56,56.7,0.0246,0.876,3.15
